Laboratory results published in patent US20170157245A1, “TREATMENT OF GASTRIC CANCER” (OncoMed Pharmaceutlcals, Inc., priority 2014, published 2017).

Legend:
[1] = tested on: xenograft tumor models; conditions: Hoey et al., 2009, U.S. Pat. No. 7,750,124; cited from earlier work
[2] = tested on: OMP-STM1 gastric tumor xenografts; test: Inhibition of OMP-STM1 gastric tumor growth in vivo; conditions: subcutaneous xenograft in NOD/SCID mice, 3 mg/kg weekly intraperitoneally for 4 weeks, given plus anti-mVEGF/anti-mDLL4 bispecific antibody, compared with control, anti-DLL4 and anti-VEGF antibodies
Experimental: FIG. 1. […] OMP-STM1 gastric tumor cells were injected subcutaneously into NOD/SCID mice. Mice were treated with control antibody (-[…]-), anti-hDLL4 antibody 21M18 (demcizumab) plus anti-mDLL4 antibody (-▪-), anti-VEGF antibody bevacizumab plus anti-mVEGF antibody (-⋄-), or anti-VEGF/anti-DLL4 bispecific antibody 219R45-MB-21M83 (305B83) plus anti-mDLL4/anti-mVEGF antibody (-▾-). Data is shown as tumor volume […] over days post-treatment. Antibodies were administered intraperitoneally at a dose of 3 mg/kg once a week. * indicates p<0.05 vs control antibody as assessed by two-way ANOVA.
Single cell suspensions of OMP-STM1 gastric tumor xenografts (50,000 cells) were injected subcutaneously into the flanks of 6-8 week old NOD/SCID mice. Tumors were allowed to grow for 34 days until they reached an average volume of 110 mm^3. The mice were randomized (n=8 per group) and treated with anti-hDLL4 antibody 21M18 (demcizumab) plus anti-mDLL4, anti-hVEGF antibody bevacizumab plus anti-mVEGF, anti-hVEGF/anti-hDLL4 bispecific antibody 219R45-MB-21R83 (305B83) plus an anti-mVEGF/anti-mDLL4 bispecific antibody, or control antibody. Antibodies were dosed at 3 mg/kg weekly by intraperitoneal injection for 4 weeks. Tumor growth was monitored and tumor volumes were measured with electronic calipers at the indicated time points. Data are expressed as mean±S.E.M.

B1: demcizumab: anti-DLL4 antibody, demcizumab (also known as OMP-21M18); heavy chain variable region SEQ ID NO:9 (antibody, chains of the INN, looked up, V domains shown)
VH: QVQLVQSGAEVKKPGASVKISCKASGYSFTAYYIHWVKQAPGQGLEWIGYISSYNGATNYNQKFKGRVTFTTDTSTSTAYMELRSLRSDDTAVYYCARDYDYDVGMDYWGQGTLVTVSS
VL: DIVMTQSPDSLAVSLGERATISCRASESVDNYGISFMKWFQQKPGQPPKLLIYAASNQGSGVPDRFSGSGSGTDFTLTISSLQAEDVAVYYCQQSKEVPWTFGGGTKVEIK
- frequency of cancer stem cells [1]: reduce the frequency of cancer stem cells
- tumor growth inhibition [1]: inhibit tumor growth

B2: 219R45-MB-21R83: anti-hVEGF/anti-hDLL4 bispecific antibody; heavy chains SEQ ID NO:7 and SEQ ID NO:62, two light chains SEQ ID NO:8 (antibody, chains of the INN, looked up, V domains shown)
VH: QVQLVQSGAEVKKPGASVKISCKASGYSFTAYYIHWVKQAPGQGLEWIGYISNYNRATNYNQKFKGRVTFTTDTSTSTAYMELRSLRSDDTAVYYCARDYDYDVGMDYWGQGTLVTVSS
VL: DIVMTQSPDSLAVSLGERATISCRASESVDNYGISFMKWFQQKPGQPPKLLIYAASNQGSGVPDRFSGSGSGTDFTLTISSLQAEDVAVYYCQQSKEVPWTFGGGTKVEIK
VH2: QVQLVQSGAEVKKPGASVKVSCKASGYTFTNYWMHWVRQAPGQGLEWMGDINPSNGRTSYKEKFKRRVTLSVDKSSSTAYMELSSLRSEDTAVYFCTIHYDDKYYPLMDYWGQGTLVTVSS
VL2: DIVMTQSPDSLAVSLGERATISCRASESVDNYGISFMKWFQQKPGQPPKLLIYAASNQGSGVPDRFSGSGSGTDFTLTISSLQAEDVAVYYCQQSKEVPWTFGGGTKVEIK
- inhibition of OMP-STM1 gastric tumor growth (tumor volume) ([2]; listed as 219R45-MB-21M83, 3 mg/kg): Inhibition of gastric tumor growth in vivo
- inhibition of OMP-STM1 gastric tumor growth (tumor volume) ([2]; listed as bispecific anti-VEGF/anti-DLL4 antibody, 3 mg/kg): greater inhibition of OMP-STM1 gastric tumor growth than either anti-DLL4 antibodies alone or anti-VEGF antibodies alone
